As a reminder, the Km is the concentration of substrate that gives half-maximal velocity.

Consider 1 molecule from US20080076129A1, “Method of Detecting an Increased Susceptibility to Breast Cancer” (priority 2000, published 2008).

For data set [1], the system named is CYP1B1. Description: Assay of CYP1B1 E2 hydroxylation activity. It is filed as biochemical, human. Particulars: for 2-OH-Estradiol kcat: E2 2-hydroxylation; for 4-OH-Estradiol kcat: E2 4-hydroxylation; for 16a-OH-Esrradiol kcat: E2 16α-hydroxylation. The protocol:
(§1) Assay of CYP1B1 E2 Hydroxylation Activity. Purified CYP1B1 (200 pmol) was reconstituted with a 2-fold molar amount of recombinant rat NADPH-P450 reductase (400 pmol), purified as previously described, and 60 μg of L-α-dilauroyl-sn-glycero-3-phosphocholine in the presence of sodium cholate (0.005%, w/v) in 0.4 ml of 100 mM potassium phosphate buffer, pH 7.4, containing varying concentrations of E2 (2, 3, 6, 9, 12, 15, 20, 40, 60, 80, and 100 μM) and 1 mM ascorbate. An NADPH-generating system consisting of 5 mM glucose 6-phosphate and 0.5 U of glucose-6-phosphate dehydrogenase/ml was added and reactions initiated by adding NADP+ to a final concentration of 0.5 mM. Reactions proceeded for 10 min at 37° C. with gentle shaking and then were terminated by addition of 2 ml CH2Cl2.
(§2) Extraction and Gas Chromatography/Mass Spectrometry Analysis of E2 and Metabolites. A deuterated internal standard (100 μl of 8 mg/liter E2-2, 4, 16, 16-d4 in methanol; CDN Isotopes, Pointe-Claire, Quebec) was added and all steroids extracted into CH2Cl2 by vortex mixing for 30 s. 1.5 ml of the CH2Cl2 fraction was evaporated to dryness under air and volatile TMS derivatives prepared by heating the residue with 100 μl of 50% NO-bis(trimethylsilyl)trifluoroacetamide/1% trimethyl chlorosilane in acetonitrile at 56° C. for 30 min. The TMS derivatives of E2 and its metabolites were separated by gas chromatography (H-P 5890, Hewlett-Packard, Wilmington, Del.) on a 5% phenyl methyl silicone stationary phase fused silica capillary column (30 m×0.2 mm×0.5 μm film, HP5; Hewlett-Packard). Helium carrier gas was used at a flow of 1 ml/min. The injector was operated at 250° C., with 2 μl injected in the splitless mode, with a purge (60 ml/min helium) time of 0.6 min. The oven temperature was held at 189° C. for 0.5 min, then raised at 6° C./min to 250° C. where it was held for 17 min, then raised to 300° C. at 8° C./min to give a total run time of 35.42 min. […] The EI mass spectrometer (H-P 5970) was operated in the selected ion monitoring mode from 18 to 34 min. Ions monitored were TMS2-E2-d4 420, 288, 330; TMS2-E2 416, 285, 326; TMS3-2-OH-E2 504, 373; TMS3-4-OH-E2 504, 373, 325; TMS3-16α-OH-E2 345, 311, 504. The instrument was calibrated by simultaneous preparation of an 11-point calibration over the range […]/tube of each compound. […] Internal standard added prior to extraction compensated for deviation from 100% recovery.
(§3) Statistical Analysis. Kinetic parameters (Km and kcat) were determined by nonlinear regression analysis using the computer program GraphPad PRISM (San Diego, Calif.).

For data set [2], the target named is T1, CYP1B1 (Homo sapiens, UniProt Q16678, L432V).
T1 construct: made in house; host or cells: Escherichia coli DH5αF′Iq
T1 sequence (Q16678 26-543 L432V): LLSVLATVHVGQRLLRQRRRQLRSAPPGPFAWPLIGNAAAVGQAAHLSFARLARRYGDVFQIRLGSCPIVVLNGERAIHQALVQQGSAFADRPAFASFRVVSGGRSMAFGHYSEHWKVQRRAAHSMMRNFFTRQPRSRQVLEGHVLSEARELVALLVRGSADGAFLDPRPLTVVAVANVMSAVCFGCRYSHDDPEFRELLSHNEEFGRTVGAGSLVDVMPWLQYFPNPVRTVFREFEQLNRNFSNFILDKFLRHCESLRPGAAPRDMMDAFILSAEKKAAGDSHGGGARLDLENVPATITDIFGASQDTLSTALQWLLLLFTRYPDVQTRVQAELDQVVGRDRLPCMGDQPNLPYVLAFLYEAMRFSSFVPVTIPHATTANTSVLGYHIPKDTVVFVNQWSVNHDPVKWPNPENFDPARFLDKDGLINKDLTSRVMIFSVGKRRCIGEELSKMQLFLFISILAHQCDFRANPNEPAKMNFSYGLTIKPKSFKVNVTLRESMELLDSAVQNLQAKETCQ
The experiment in a line: Assay of CYP1B1 E2 hydroxylation activity. It is filed as biochemical. Conditions: text and FIG. 4; read-out: 2-OH-E2 hydroxylation Km. The protocol:
as §1, §2, §3

B1: Wild type: purified recombinant His-tagged CYP1B1 with 48Arg, 119Ala, 432Val, 453Asn (protein)
chain: HHHHHHLLSVLATVHVGQRLLRQRRRQLRSAPPGPFAWPLIGNAAAVGQAAHLSFARLARRYGDVFQIRLGSCPIVVLNGERAIHQALVQQGSAFADRPAFASFRVVSGGRSMAFGHYSEHWKVQRRAAHSMMRNFFTRQPRSRQVLEGHVLSEARELVALLVRGSADGAFLDPRPLTVVAVANVMSAVCFGCRYSHDDPEFRELLSHNEEFGRTVGAGSLVDVMPWLQYFPNPVRTVFREFEQLNRNFSNFILDKFLRHCESLRPGAAPRDMMDAFILSAEKKAAGDSHGGGARLDLENVPATITDIFGASQDTLSTALQWLLLLFTRYPDVQTRVQAELDQVVGRDRLPCMGDQPNLPYVLAFLYEAMRFSSFVPVTIPHATTANTSVLGYHIPKDTVVFVNQWSVNHDPLKWPNPENFDPARFLDKDGLINKDLTSRVMIFSVGKRRCIGEELSKMQLFLFISILAHQCDFRANPNEPAKMNFSYGLTIKPKSFKVNVTLRESMELLDSAVQNLQAKETCQ
For B1, in data set [1], the 2-OH-Estradiol kcat came to 1.9 ± 0.1 min⁻¹, the 4-OH-Estradiol kcat was found to be 4.4 ± 0.4 min⁻¹ and the 16a-OH-Esrradiol kcat is 0.30 ± 0.02 min⁻¹. In data set [1] (listed as Wild type CYP1B1), this molecule had a 2-OH-Estradiol kcat of 1.9 ± 0.1 min⁻¹, a 4-OH-Estradiol kcat of 4.4 ± 0.4 min⁻¹ and a 16a-OH-Esrradiol kcat of 0.30 ± 0.02 min⁻¹. In data set [1] (listed as wild type CYP1B1), this molecule had a 2-OH-Estradiol kcat of 1.9 ± 0.1 min⁻¹, a 4-OH-Estradiol kcat of 4.4 ± 0.4 min⁻¹ and a 16a-OH-Esrradiol kcat of 0.30 ± 0.02 min⁻¹. Besides, the Km in data set [2] came out at 34 ± 4 µM.
